Laboratory results published in PMC6560085.

What was measured:
GST-TARDBP (TDP-43) [1] = biological target: T1, GST-TARDBP (TDP-43) (human, UniProt Q13148 1-414); experiment: EMSA; dose dependent; supershifted by anti-TARDBP (Fig. 6d); conditions: protein: recombinant; tags: N-terminal GST (pGEX-4T-1); label: 3' biotin; single strand
GST-TARDBP (TDP-43) [2] = biological target: T1, GST-TARDBP (TDP-43); experiment: competition; 0-200 fold unlabeled competitor; conditions: protein: recombinant; tags: N-terminal GST (pGEX-4T-1); single strand
GST-TARDBP (TDP-43) [3] = biological target: T1, GST-TARDBP (TDP-43); experiment: EMSA; 2 ug protein; conditions: protein: recombinant; tags: N-terminal GST (pGEX-4T-1); label: 3' biotin; single strand
GST-TARDBP (TDP-43) [4] = biological target: T1, GST-TARDBP (TDP-43); experiment: EMSA; 2 ug protein; binding unaffected; conditions: protein: recombinant; tags: N-terminal GST (pGEX-4T-1); label: 3' biotin; single strand
GST-TARDBP (TDP-43) [5] = biological target: T1, GST-TARDBP (TDP-43); experiment: EMSA; conditions: protein: recombinant; tags: N-terminal GST (pGEX-4T-1); label: 3' biotin; single strand

T1 sequence (Q13148 whole entry): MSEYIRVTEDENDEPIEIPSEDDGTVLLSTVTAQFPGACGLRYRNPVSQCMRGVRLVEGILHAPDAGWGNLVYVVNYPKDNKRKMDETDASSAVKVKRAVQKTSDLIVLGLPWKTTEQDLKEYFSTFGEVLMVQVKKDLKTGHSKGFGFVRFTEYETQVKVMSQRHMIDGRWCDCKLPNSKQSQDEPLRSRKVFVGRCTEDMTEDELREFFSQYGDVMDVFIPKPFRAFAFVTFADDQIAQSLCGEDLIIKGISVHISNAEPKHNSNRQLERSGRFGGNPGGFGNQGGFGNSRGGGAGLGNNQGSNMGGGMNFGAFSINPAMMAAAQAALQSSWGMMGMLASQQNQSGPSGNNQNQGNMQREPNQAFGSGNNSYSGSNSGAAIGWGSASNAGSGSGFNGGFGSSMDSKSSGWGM

Binder | binding result (GST-TARDBP (TDP-43) [3]) | binding result (GST-TARDBP (TDP-43) [5]) | further results
ATGAGATGATTAGGCAGAGGTGAAAAAGTTGCATGGTGCTGGTGAA (ssDNA) [AS probe 1 (WT, nt1804-1849)] | – | – | binding result (GST-TARDBP (TDP-43) [1]): binds
ATGAGATGATTAGGCAGAGGTGAAAAAGTTGCATGGTGCTGGTGAA (ssDNA) [AS probe 1 unlabeled competitor] | – | – | binding result (GST-TARDBP (TDP-43) [2]): binds
ATCAGACGACTAGGCAGAGGTGAAAAAGTTGCATGGTGCTGGTGAA (ssDNA) [AS Mutant 1] | no binding | – | –
ATGAGATGATTAAGCATAGGCGAAAAAGTTGCATGGTGCTGGTGAA (ssDNA) [AS Mutant 2] | no binding | – | –
ATGAGATGATTAGGCAGAGGTGCTAGCGTTGCATGGTGCTGGTGAA (ssDNA) [AS Mutant 3 (central A5 repeat mutated)] | – | – | binding result (GST-TARDBP (TDP-43) [4]): binds
ATGAGATGATTAGGCAGAGGTGAAAAAGCTACATAGTACTGGTGAA (ssDNA) [AS Mutant 4] | no binding | – | –
ATGAGATGATTAGGCAGAGGTGAAAAAGTTGCATAGTACTCGTGAA (ssDNA) [AS Mutant 5] | no binding | – | –
ATGAACATGAGATGATTAGGCAGAGGTG (ssDNA) [fragment s1] | – | no binding | –
GGTGAAAAAGTTGCATGGTGCTGGTGAA (ssDNA) [fragment s2] | – | no binding | –
CTGGTGAACAGACCAATTTATGCCTACAGCCTCCTAGTACAAAGAC (ssDNA) [AS probe 2 (adjacent)] | no binding | – | –
CAGAGGTGAAAAAGTTGCATGGTG (ssDNA) [fragment s3] | – | no binding | –
AAAGTTGCATGGTGCTGGTGAACA (ssDNA) [fragment s4] | – | no binding | –
